# From US20200369772A1 (ABBA THERAPEUTICS, published 2020)
# Where two headings read alike, the source gives them in different places.
# B1: 10A9-D2 N31Q.LC (antibody, V domains shown)
# VH: QVQLQESGPGLVKPSETLSLTCAVSGGSISSSYWWSWVRQPPGKGLEWVGEVFHVGVTNYNPSLKSRVTISVDKSKNQFSLKLTSVTAADTAVYYCARVTGTTGYYHGLDVWGQGTTVTVFS
# VL: DIQMTQSPSSLSASVGDRVTITCRASQGIRQDLGWYQQKPGKVPKRLIYAASSLQSGIPSRFSGSGSGTEFTLTISSLQPEDFATYYCLQHNNYPRTFGQGTKVEIK
# notes: Optimized variant of 10A9-D2
# B2: 19B3-B3 M23K.M63L.HC (antibody, V domains shown)
# VH: QVQLVQSGAEVKKPGASVKVSCKASGYTFTNYAIHWVRQAPGQRLEWMGWINTGLGKPKYSQLFQDRVTITRDTSASTASMELSGLRSDDTAVYYCARVGWELYFDYWGQGTLVTVSS
# VL: DIQMTQSPSTLSASVGDRVTITCRASQSISSLLAWYQQKPGKAPKLLIYKASSLESGVPSRFSGSGSGTEFTLTISSLQPDDFATYFCQQYNSYWTFGQGTKVEIK
# notes: Optimized variant of 19B3-B3
# B3: 19B3-B3 N92Y.LC.M23K.M63L.HC (antibody, V domains shown)
# VH: QVQLVQSGAEVKKPGASVKVSCKASGYTFTNYAIHWVRQAPGQRLEWMGWINTGLGKPKYSQLFQDRVTITRDTSASTASMELSGLRSDDTAVYYCARVGWELYFDYWGQGTLVTVSS
# VL: DIQMTQSPSTLSASVGDRVTITCRASQSISSLLAWYQQKPGKAPKLLIYKASSLESGVPSRFSGSGSGTEFTLTISSLQPDDFATYFCQQYYSYWTFGQGTKVEIK
# notes: Optimized variant of 19B3-B3
# B4: 19B3-B3 N92Q.LC.M23K.M63L.HC (antibody, V domains shown)
# VH: QVQLVQSGAEVKKPGASVKVSCKASGYTFTNYAIHWVRQAPGQRLEWMGWINTGLGKPKYSQLFQDRVTITRDTSASTASMELSGLRSDDTAVYYCARVGWELYFDYWGQGTLVTVSS
# VL: DIQMTQSPSTLSASVGDRVTITCRASQSISSLLAWYQQKPGKAPKLLIYKASSLESGVPSRFSGSGSGTEFTLTISSLQPDDFATYFCQQYQSYWTFGQGTKVEIK
# notes: Optimized variant of 19B3-B3
# Columns and labels:
# [1] = target: endogenous PD-L2 (human) (UniProt Q9BQ51); assay: FACS, NCI-H226 cells
# [2] = target: endogenous PD-L2 (human) (UniProt Q9BQ51); assay: FACS, NCI-H226 cells; remark: listed apart in the source
# [3] = target: PD-L2 (human) (UniProt Q9BQ51); assay: FACS, CHO-K1 expressing human PD-L2
# [4] = target: PD-L2 (human) (UniProt Q9BQ51); assay: FACS blocking of PD-1 binding to CHO-K1/hPD-L2; high antigen concentration
# [5] = target: PD-L2 (human) (UniProt Q9BQ51); assay: as above; remark: listed apart in the source
# [6] = target: PD-L2 (human) (UniProt Q9BQ51); assay: FACS blocking of hPD-L2 binding to HEK293T-hPD-1; low antigen concentration
# [7] = target: PD-L2 (human) (UniProt Q9BQ51); assay: blocking of PD-L2 - PD-1 interaction (cell binding); low antigen concentration
# [8] = target: T1, human PD-L1 (full-length, on cells) (human, UniProt Q9NZQ7 19-290); assay: FACS on HEK293T cells expressing human PD-L1
# T1 construct: whole, on cells; HEK293 cells stably expressing full-length human PD-L1
# T1 sequence (Q9NZQ7 19-290): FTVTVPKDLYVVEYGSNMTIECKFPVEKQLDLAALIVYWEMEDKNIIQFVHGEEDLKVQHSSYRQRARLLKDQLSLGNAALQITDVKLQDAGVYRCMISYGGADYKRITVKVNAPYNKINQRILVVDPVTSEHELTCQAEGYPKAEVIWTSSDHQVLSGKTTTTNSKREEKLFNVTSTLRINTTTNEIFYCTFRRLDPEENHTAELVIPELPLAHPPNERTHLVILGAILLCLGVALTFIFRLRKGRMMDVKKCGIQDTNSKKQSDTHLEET
# Experimental: (§1) HEK293T cells expressing human PD-L1 were incubated with chimeric anti-PD-L2 antibodies. Cells were washed and binding was detected with an FITC-labelled anti-rat IgG Ab (Thermo Fisher Scientific). Flow cytometric analyses were performed using a FACSCalibur flow cytometer (Becton Dickinson). PE-labelled anti-human PD-L1 clone MIH1 served as positive control. All peaks overlap except for the positive control in FIG. 7F.
# (§2) The ability of anti-PD-L2 antibodies binding to mouse PD-L2, human PD-L1 or cyno PD-L2 was determined by FACS. HEK293 cells stably expressing full-length monkey PD-L2, mouse PD-L2 or human PD-L1 were established, subcloned and verified. For binding assay, 1.5×10⁵ cells in 100 μl of FACSwash buffer were incubated with individual anti-PD-L2 antibodies (0.5 μg/ml) for 30 min. After three times of washing, the cells were re-suspended in FACSwash buffer containing FITC-labelled goat-anti-rat IgG (Thermo Fisher, 1:1000) or APC-labelled goat-anti-ratIgG (Biolegend, Clone Poly4054) at a 1:2000 dilution for 20 min at 4° C., washed three times and subsequently subjected to FACS analysis. FACS data was analysed using FlowJo Software and depicted as histograms including secondary antibody only controls.
# [9] = target: T2, mouse PD-L2 (full-length, on cells) (mouse, UniProt Q9WUL5 20-247); assay: FACS on HEK293T cells expressing mouse PD-L2
# T2 construct: whole, on cells; HEK293 cells stably expressing full-length mouse PD-L2
# T2 sequence (looked up): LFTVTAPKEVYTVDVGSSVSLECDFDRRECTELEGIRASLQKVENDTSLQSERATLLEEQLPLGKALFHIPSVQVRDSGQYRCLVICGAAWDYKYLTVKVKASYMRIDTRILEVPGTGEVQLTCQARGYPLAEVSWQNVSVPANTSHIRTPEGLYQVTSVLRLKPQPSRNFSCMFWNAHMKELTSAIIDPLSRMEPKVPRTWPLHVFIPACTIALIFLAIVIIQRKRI
# Experimental: as §1, with “mouse PD-L2” for “human PD-L1”, “anti-mouse PD-L2” for “anti-human PD-L1”, “TY25” for “MIH1”, “6F.” for “7F.”
# as §2
# [10] = target: T3, human PD-L2 (full-length, on cells) (human, UniProt Q9BQ51 20-273); assay: FACS binding on cells expressing human PD-L2 (per the examples)
# T3 construct: whole, on cells; CHO-K1 cells stably expressing full-length human PD-L2; also endogenous on NCI-H226 and transfected in Jurkat cells; also called hPD-L2; CHO-K1/hPD-L2
# T3 sequence (looked up): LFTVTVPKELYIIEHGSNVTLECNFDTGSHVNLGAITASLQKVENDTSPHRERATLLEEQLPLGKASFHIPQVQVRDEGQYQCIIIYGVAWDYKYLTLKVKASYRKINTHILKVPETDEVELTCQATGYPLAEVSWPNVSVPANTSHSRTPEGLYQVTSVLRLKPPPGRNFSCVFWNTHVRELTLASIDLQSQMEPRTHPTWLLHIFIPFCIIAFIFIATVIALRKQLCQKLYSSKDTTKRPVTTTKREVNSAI
# [11] = target: T4, human PD-L2 (full-length, on cells) (human, UniProt Q9BQ51 20-273); assay: FACS binding to CHO-K1 cells expressing human PD-L2
# T4 chain: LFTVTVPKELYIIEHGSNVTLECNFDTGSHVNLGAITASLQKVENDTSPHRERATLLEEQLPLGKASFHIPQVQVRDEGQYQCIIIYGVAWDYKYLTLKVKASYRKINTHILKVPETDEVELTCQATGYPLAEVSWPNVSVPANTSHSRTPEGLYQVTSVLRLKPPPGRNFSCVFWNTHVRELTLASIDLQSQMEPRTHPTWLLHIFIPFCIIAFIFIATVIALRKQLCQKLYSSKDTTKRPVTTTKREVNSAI
# Method in brief: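 Binding EC50 values were derived in GraphPad Prism by non-linear curve fitting of percentage of maximal binding versus concentration. The binding data came from flow cytometry on a BD FACSCalibur, using CHO-K1 cells stably expressing full-length human PD-L2. Detection used APC-labelled anti-rat IgG or anti-human IgG Fc, according to the antibody format, applied for 20 min at 4° C.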
# [12] = target: T3, human PD-L2 (full-length, on cells); assay: FACS on CHO-K1 cells expressing human PD-L2, against the parental antibody
# Method in brief: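 Sequence-optimised antibodies expressed in HEK293 cells and their parental antibodies were incubated at different concentrations with CHO-K1 cells expressing human PD-L2. Cells were washed and binding was detected with an APC-labelled anti-human Fc antibody by flow cytometry on a FACSCalibur.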
Molecule,EC50 [1] [nM],EC50 [2] [nM],EC50 [3] [nM],IC50 [4] [nM],IC50 [5] [nM],IC50 [6] [nM],IC50 [7] [nM],binding result [8],binding result [9],binding result [10],EC50 [11] [nM],binding result [12]
MIH18,2.21,2.69,1.59,2.42,1.8,0.104,0.0671,–,–,–,–,–
B1,–,–,–,–,–,–,–,no binding,no binding,binds,0.32,–
B2,–,–,–,–,–,–,–,no binding,no binding,binds,0.38,–
B3,–,–,–,–,–,–,–,no binding,no binding,–,–,binds
B4,–,–,–,–,–,–,–,no binding,no binding,–,–,binds
